Our source for the KM (μM) of phosphorylation, Michaelis-Menten analysis, ADP-Quest assay values is PMC10065799, “High-throughput profiling of sequence recognition by tyrosine kinases and SH2 domains using bacterial peptide display” (eLife, 2023).

For the experiment, the target named is human c-Src kinase domain (residues 260-528) (human) (UniProt P12931).

B1: Src Consensus peptide Ac-…-NH2 (peptide)
peptide: Ac-GPDECIYDMFPFKKKG-NH2
Regarding B1, the KM (μM) of phosphorylation, Michaelis-Menten analysis, ADP-Quest assay came to 196 µM.
